Measurements as given in article PMC9616950, “A toxin-deformation dependent inhibition mechanism in the T7SS toxin-antitoxin system of Gram-positive bacteria” (Nature Communications, 2022).

B1: EsaG (natural protein)
chain: MTFEEKLSKIYNEIANEISSMIPVEWEKVYTMAYIDDGGGEVFFNYTKPGSDDLNYYTNIPKEYNISVQVFDDLWMDLYDLFEELRDLFKEEDLEPWTSCEFDFTREGELKVSFDYIDWINSEFGQIGRQNYYKYRKFGILPETEYEINKVKEIEQYIKELEE
notes: also called antitoxin EsaG; full-length EsaG; source: E. coli BL21(DE3), purified (nickel column, ion exchange, Superdex 200); not shown: His6-SUMO, N-terminal, cleaved
B2: EsaDc H528A (EsaD residues 450-614, crystallised with EsaG) (domain or fragment)
chain: SPNYTKVEFGEHYARLRPKKLKANIEYTTPTGHIYRTDHKGRIKEVYVDNLSLKDGDRNSHAQRTVGGEDRLPDDDGGALIARMFGGSKDIDNLVAQSKFINRPFKEKGHWYNLEKEWQEFLNSGKEVKNIKMEVKYSGNSQRPTIFKVEYEINGERNIRRILNK
notes: source: E. coli BL21(DE3), purified (nickel column, ion exchange, Superdex 200); not shown: His6-SUMO, N-terminal, cleaved

What was measured:
[1] = biological target: Avi-tagged EsaG, biotinylated (S. aureus) (UniProt Q2G178); experiment: BLI; biotinylated Avi-tagged EsaG immobilised on streptavidin biosensors, EsaDc in solution at different concentrations; 300 mM NaCl, 30 mM NaH2PO4, 27 mM KCl, pH 7.2
[2] = biological target: B2; experiment: crystal structure; EsaDc-EsaG complex, 2.60 Å; hanging drop, 0.1 M Tris pH 8.5, 12% PEG6000, 0.15 M NaCl, 10% ethylene glycol, 0.5% Tacsimate pH 7.0, 1.0% PEG5000MME; conditions: both partners purified
[3] = biological target: the molecule itself; experiment: as above
EsaG [4] = biological target: B1; experiment: pull-down; His-SUMO-tagged protein on Ni-NTA beads with untagged protein (0.16 mM : 0.2 mM); 25 mM Tris-HCl pH 8.0, 1 M NaCl, 24 °C, 30 min; Coomassie-stained SDS-PAGE; conditions: both partners purified
EsaG [5] = biological target: B1; experiment: SEC; gel filtration of purified proteins and their mixtures; column and buffer not told for these runs; conditions: both partners purified

For “EsaDc N562F (from UniProt Q2G179 450-614) (domain or fragment)”, which Kd [1] is on record?
The Kd was 0.86 µM.

How did the Kd [1] turn out when “EsaDc Y484A (from UniProt Q2G179 450-614) (domain or fragment)” was run?
The Kd was 1.67 µM.

For “EsaDc (EsaD residues 450-614, as used in the solution assays) (from UniProt Q2G179 450-614) (domain or fragment)”, which Kd [1] is on record?
The Kd was 0.46 µM.

Does B1 bind [2]?
Result: binds

Does B2 bind [3]?
Result: binds

B3: His-EsaDc-NFL (His-SUMO-tagged EsaD residues 450-503) (domain or fragment)
chain: SPNYTKVEFGEHYARLRPKKLKANIEYTTPTGHIYRTDHKGRIKEVYVDNLSLK
notes: also called His-tagged NFL; source: E. coli, purified; not shown: His-SUMO, N-terminal, kept
Does B3 bind (EsaG [4])?
Result: binds

B4: NFL (EsaD residues 450-503) (domain or fragment)
chain: SPNYTKVEFGEHYARLRPKKLKANIEYTTPTGHIYRTDHKGRIKEVYVDNLSLK
notes: 15N-labelled in one of the HSQC samples; The methods call the fragment NTL; also called EsaDc-NFL; NTL; source: E. coli BL21(DE3), purified (nickel column, ion exchange, Superdex 200); not shown: His6-SUMO, N-terminal, cleaved
Does B4 bind (EsaG [5])?
Result: binds
